Positions count from the first letter of the chain named. Names and notes keep the numbering of the source.
B1: β-arrestin-1 (bovine, full-length wild type, C-terminal His tag) (natural protein, UniProt P17870 1-418, looked up)
chain: MGDKGTRVFKKASPNGKLTVYLGKRDFVDHIDLVEPVDGVVLVDPEYLKERRVYVTLTCAFRYGREDLDVLGLTFRKDLFVANVQSFPPAPEDKKPLTRLQERLIKKLGEHAYPFTFEIPPNLPCSVTLQPGPEDTGKACGVDYEVKAFCAENLEEKIHKRNSVRLVIRKVQYAPERPGPQPTAETTRQFLMSDKPLHLEASLDKEIYYHGEPISVNVHVTNNTNKTVKKIKISVRQYADICLFNTAQYKCPVAMEEADDTVAPSSTFCKVYTLTPFLANNREKRGLALDGKLKHEDTNLASSTLLREGANREILGIIVSYKVKVKLVVSRGGLLGDLASSDVAVELPFTLMHPKPKEEPPHREVPEHETPVDTNLIELDTNDDDIVFEDFARQRLKGMKDDKEEEEDGTGSPRLNDR
notes: β-arrestin-1, bovine, full-length wild-type cDNA in pET22b; also called native β-arrestin-1; wild-type β-arrestin-1; source: E. coli BL21, purified (Ni-NTA, Superdex 200)
B2: β-arrestin-1-V8-F2Y (natural protein, bovine, UniProt P17870 1-418, looked up)
chain: B1 chain with V8Y
modifications: 3,5-difluorotyrosine (F2Y) at 8
notes: β-arrestin-1, bovine, full-length cDNA in pET22b, amber codon at V8 read as F2Y; source: E. coli BL21 (DE3) with pEVOL-F2YRS and F2Y in the medium, purified (Ni-NTA, gel filtration)
B3: β-arrestin-1-F277-F2Y (natural protein, bovine, UniProt P17870 1-418, looked up)
chain: B1 chain with F277Y
modifications: 3,5-difluorotyrosine (F2Y) at 277
notes: β-arrestin-1, bovine, full-length cDNA in pET22b, amber codon at F277 read as F2Y; also called F2Y-F277; source: E. coli BL21 (DE3) with pEVOL-F2YRS and F2Y in the medium, purified (Ni-NTA, gel filtration)
B4: β-arrestin-1-K107-F2Y (natural protein, bovine, UniProt P17870 1-418, looked up)
chain: B1 chain with K107Y
modifications: 3,5-difluorotyrosine (F2Y) at 107
notes: β-arrestin-1, bovine, full-length cDNA in pET22b, amber codon at K107 read as F2Y; source: E. coli BL21 (DE3) with pEVOL-F2YRS and F2Y in the medium, purified (Ni-NTA, gel filtration)
B5: β-arrestin-1-K138-F2Y (natural protein, bovine, UniProt P17870 1-418, looked up)
chain: B1 chain with K138Y
modifications: 3,5-difluorotyrosine (F2Y) at 138
notes: β-arrestin-1, bovine, full-length cDNA in pET22b, amber codon at K138 read as F2Y; source: E. coli BL21 (DE3) with pEVOL-F2YRS and F2Y in the medium, purified (Ni-NTA, gel filtration)
B6: β-arrestin-1-L338-F2Y (natural protein, bovine, UniProt P17870 1-418, looked up)
chain: B1 chain with L338Y
modifications: 3,5-difluorotyrosine (F2Y) at 338
notes: β-arrestin-1, bovine, full-length cDNA in pET22b, amber codon at L338 read as F2Y; also called F2Y-L338; source: E. coli BL21 (DE3) with pEVOL-F2YRS and F2Y in the medium, purified (Ni-NTA, gel filtration)
B7: β-arrestin-1-K11-F2Y (natural protein, bovine, UniProt P17870 1-418, looked up)
chain: B1 chain with K11Y
modifications: 3,5-difluorotyrosine (F2Y) at 11
notes: β-arrestin-1, bovine, full-length cDNA in pET22b, amber codon at K11 read as F2Y; source: E. coli BL21 (DE3) with pEVOL-F2YRS and F2Y in the medium, purified (Ni-NTA, gel filtration)
B8: β-arrestin-1-T136-F2Y (natural protein, bovine, UniProt P17870 1-418, looked up)
chain: B1 chain with T136Y
modifications: 3,5-difluorotyrosine (F2Y) at 136
notes: β-arrestin-1, bovine, full-length cDNA in pET22b, amber codon at T136 read as F2Y; also called F2Y-T136; source: E. coli BL21 (DE3) with pEVOL-F2YRS and F2Y in the medium, purified (Ni-NTA, gel filtration)
B9: β-arrestin-1-F75-F2Y (natural protein, bovine, UniProt P17870 1-418, looked up)
chain: B1 chain with F75Y
modifications: 3,5-difluorotyrosine (F2Y) at 75
notes: β-arrestin-1, bovine, full-length cDNA in pET22b, amber codon at F75 read as F2Y; source: E. coli BL21 (DE3) with pEVOL-F2YRS and F2Y in the medium, purified (Ni-NTA, gel filtration)
B10: β-arrestin-1-D383-F2Y (natural protein, bovine, UniProt P17870 1-418, looked up)
chain: B1 chain with D383Y
modifications: 3,5-difluorotyrosine (F2Y) at 383
notes: β-arrestin-1, bovine, full-length cDNA in pET22b, amber codon at D383 read as F2Y; source: E. coli BL21 (DE3) with pEVOL-F2YRS and F2Y in the medium, purified (Ni-NTA, gel filtration)
B11: β-arrestin-1-K294-F2Y (natural protein, bovine, UniProt P17870 1-418, looked up)
chain: B1 chain with K294Y
modifications: 3,5-difluorotyrosine (F2Y) at 294
notes: β-arrestin-1, bovine, full-length cDNA in pET22b, amber codon at K294 read as F2Y; source: E. coli BL21 (DE3) with pEVOL-F2YRS and F2Y in the medium, purified (Ni-NTA, gel filtration)
B12: β-arrestin-1-R7-F2Y (natural protein, bovine, UniProt P17870 1-418, looked up)
chain: B1 chain with R7Y
modifications: 3,5-difluorotyrosine (F2Y) at 7
notes: β-arrestin-1, bovine, full-length cDNA in pET22b, amber codon at R7 read as F2Y; source: E. coli BL21 (DE3) with pEVOL-F2YRS and F2Y in the medium, purified (Ni-NTA, gel filtration)
B13: β-arrestin-1-N375-F2Y (natural protein, bovine, UniProt P17870 1-418, looked up)
chain: B1 chain with N375Y
modifications: 3,5-difluorotyrosine (F2Y) at 375
notes: β-arrestin-1, bovine, full-length cDNA in pET22b, amber codon at N375 read as F2Y; also called F2Y-N375; source: E. coli BL21 (DE3) with pEVOL-F2YRS and F2Y in the medium, purified (Ni-NTA, gel filtration)
B14: β-arrestin-1-F388-F2Y (natural protein, bovine, UniProt P17870 1-418, looked up)
chain: B1 chain with F388Y
modifications: 3,5-difluorotyrosine (F2Y) at 388
notes: β-arrestin-1, bovine, full-length cDNA in pET22b, amber codon at F388 read as F2Y; source: E. coli BL21 (DE3) with pEVOL-F2YRS and F2Y in the medium, purified (Ni-NTA, gel filtration)
B15: β-arrestin-1 wild type (natural protein, bovine, UniProt P17870 1-418, looked up)
chain: B1 chain
notes: β-arrestin-1, bovine, full-length wild-type cDNA in pET22b; also called β-arrestin-1-WT; WT; source: E. coli BL21, purified (Ni-NTA, Superdex 200)

Each binder was assayed against T1, GST-SRC3D (SRC-SH2-SH3-kinase-three domain) (chicken, UniProt P00523 87-531) (assay: pull-down; GST pull-down; 300 nM β-arrestin-1 first mixed with phosphopeptide (equal concentration) 30 min at room temperature in 20 mM Tris-HCl pH 8.0, 150 mM NaCl, 2 mM EDTA, 1 mM DTT; then 10 μM GST-clathrin or GST-SRC 1 h; GST beads 2 h at 4 °C; blot with a β-arrestin-1 antibody). Settings: both partners purified.
T1 construct: c-SRC, chicken, residues 87-531, containing SH3, SH2 and catalytic domains; source: E. coli BL21, purified (glutathione-Sepharose 4B, eluted with GSH); not shown: GST, N-terminal, kept

Binding result, binds:
B1

These binders were tested against T2, GST-clathrin 1–494 (human, UniProt Q00610 1-494) (assay: pull-down; β-arrestin-1-F2Y mutants (300 nM) incubated with equal concentrations of GST-clathrin and V2R-phospho-peptide (V2Rpp), or without peptide; pulled down with GST beads; bound β-arrestin-1 detected by western blot with a β-arrestin-1 antibody). Settings: both partners purified.
T2 construct: clathrin, human, residues 1-494, in pGEX-6P1; source: E. coli BL21, purified (glutathione-Sepharose 4B, eluted with GSH); not shown: GST, N-terminal, kept
T2 sequence (looked up): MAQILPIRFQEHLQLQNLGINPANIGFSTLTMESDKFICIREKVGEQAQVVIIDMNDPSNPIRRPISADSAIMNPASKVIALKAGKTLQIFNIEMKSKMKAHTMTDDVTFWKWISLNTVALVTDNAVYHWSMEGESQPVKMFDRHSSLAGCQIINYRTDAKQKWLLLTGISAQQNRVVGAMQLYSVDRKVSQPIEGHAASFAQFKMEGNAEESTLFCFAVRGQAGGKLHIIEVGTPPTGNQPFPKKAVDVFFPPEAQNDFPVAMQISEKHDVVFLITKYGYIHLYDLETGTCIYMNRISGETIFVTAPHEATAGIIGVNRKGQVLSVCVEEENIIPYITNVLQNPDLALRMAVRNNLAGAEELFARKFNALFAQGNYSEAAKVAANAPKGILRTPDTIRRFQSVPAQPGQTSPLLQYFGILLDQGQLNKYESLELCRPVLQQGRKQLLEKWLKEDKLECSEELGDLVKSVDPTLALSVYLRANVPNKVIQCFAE

Binding result, binds:
B2, B3, B4, B5, B6, B7, B8, B9, B10, B11, B12, B13, B14

The binders below were run against T2, GST-clathrin 1–494 (assay: pull-down; GST-clathrin pull-down of β-arrestin-1 with V2Rpp at protein:V2Rpp ratios 1:0, 1:0.03, 1:0.3, 1:3 and 1:9; western blot for β-arrestin-1, densitometry). Settings: both partners purified.

Binding result, binds:
B15

Source: paper PMC4569848 (Nature Communications, 2015)
